Substitutions are numbered along the chain they refer to.
B1: 648 (protein)
chain: LDNGLARTPPMGWLHWERFMCNLDCQEEPDSCISEKLFEEMAERMVTEGWKDAGYEYLCIDDCWMAPQRDSEGRLQADPQRFPHGIRQLANHVHSKGLKLGIYADVGNKTCAGFPGSFGYYDIDAQTFADWGVDLLKFDGCYCDSLENLADGYKHMSLALNRTGRPIVYSCEWPLYMWPFQKPNYTEIRQYCNHWRNFADIDDSWASIKSILDWTSRNQERIVDVAGPGGWNDPDMLVIGNFGLSWDQQVTQMALWAIMAGPLFMSNDLRAISPQAKALLQDKDVIAINQDPLGKQGYQLRKGDNFEVWERPLSGDAWAVAIINRQEIGGPRSYTIPVASLGKGVACNPACFITQLLPVKRQLGFYNATSRLKSHINPTGTVLLQLENTMQTSLKDLL
modifications: Synthetic Polypeptide sequence of Variant No. 648
B2: 657 (protein)
chain: B1 chain with P10T, E39M, P67T, K182N, G261A, A368W
modifications: Synthetic Polypeptide sequence of Variant No. 657 of mature Human GLA
B3: 653 (protein)
chain: B1 chain with E39M, W246P, G261A, A368W
modifications: Synthetic Polypeptide sequence of Variant No. 653 of mature Human GLA
B4: 650 (protein)
chain: B1 chain with R7H, E39M, G261A, A368W
modifications: Synthetic Polypeptide sequence of Variant No. 650 of mature Human GLA
B5: 652 (protein)
chain: B1 chain with P10T, E39M, W246P, N305L, A368W
modifications: Synthetic Polypeptide sequence of Variant No. 652 of mature Human GLA
B6: 651 (protein)
chain: B1 chain with E39M, G261A, A368W
modifications: Synthetic Polypeptide sequence of Variant No. 651 of mature Human GLA
B7: 649 (protein)
chain: B1 chain with W246P, G261A, A368W
modifications: Synthetic Polypeptide sequence of Variant No. 649 of mature Human GLA
B8: 654 (protein)
chain: B1 chain with R7S, P10T, E39M, G261A, A368W
modifications: Synthetic Polypeptide sequence of Variant No. 654 of mature Human GLA
B9: 638 (protein)
chain: B1 chain with E39M, A368W
modifications: Synthetic Polypeptide sequence of Variant No. 638 of mature Human GLA
B10: 656 (protein)
chain: B1 chain with E39M, W246P, A368W
modifications: Synthetic Polypeptide sequence of Variant No. 656 of mature Human GLA
B11: 655 (protein)
chain: B1 chain with P10T, E39M, W246P, N305L
modifications: Synthetic Polypeptide sequence of Variant No. 655 of mature Human GLA
B12: 647 (protein)
chain: LDNGLARTPTMGWLHWERFMCNLDCQEEPDSCISEKLFMEMAERMVSEGWKDAGYEYLCIDDCWMAPQRDSEGRLQADPQRFPHGIRQLANYVHSIGLKLGIYADVGNKTCAGFPGSFGYYDIDAQTFADWGVDLLKFDGCYCDSLENLADGYKHMSLALNRTGRSIVYSCEWPLYMWPFQKPNYTEIRQYCNHWRNFADIDDSWASIKSILDWTSRNQERIVDVAGPGGWNDPDMLVIGNFGLSWNQQVTQMALWAIMAAPLFMSNDLRHISPQAKALLQDKDVIAINQDPLGKQGYQLRKGDNFEVWERPLSGLAWAVAIINRQEIGGPRSYTIAVASLGKGVACNPGCFITQLLPVKRQLGFYNWSSRLKSHINPTGTVLLQLENTMQMSLKDLL
modifications: Synthetic Polypeptide sequence of Variant No. 346 of mature Human GLA

Assay: HTP-analysis of yeast culture supernatants, no challenge (MUGal hydrolysis)
Format: biochemical
Settings: activity of the variant/activity of Rd7BB (SEQ ID NO: 44)
Summary of the method: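 GLA variants expressed in yeast INVSc1, secreted into SD-Ura broth over 66-84 h at 30° C; clarified supernatants tested without challenge. Supernatant mixed with McIlvaine buffer pH 4.8 and 2 mM MUGal (citrate/KCl, pH 4.6), 37° C for 30-180 min, carbonate-quenched, fluorescence Ex 355/Em 448 nm.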

Molecule | Relative Activity of GLA Variants After No Challenge (NC)
B1 | + (>0.5 to 1.5 relative activity over Rd7BB (SEQ ID NO: 44))
B2 | + (>0.5 to 1.5 relative activity over Rd7BB (SEQ ID NO: 44))
B3 | + (>0.5 to 1.5 relative activity over Rd7BB (SEQ ID NO: 44))
B4 | + (>0.5 to 1.5 relative activity over Rd7BB (SEQ ID NO: 44))
B5 | + (>0.5 to 1.5 relative activity over Rd7BB (SEQ ID NO: 44))
B6 | + (>0.5 to 1.5 relative activity over Rd7BB (SEQ ID NO: 44))
B7 | + (>0.5 to 1.5 relative activity over Rd7BB (SEQ ID NO: 44))
B8 | + (>0.5 to 1.5 relative activity over Rd7BB (SEQ ID NO: 44))
B9 | − (<0.5 relative activity to Rd7BB (SEQ ID NO: 44))
B10 | + (>0.5 to 1.5 relative activity over Rd7BB (SEQ ID NO: 44))
B11 | + (>0.5 to 1.5 relative activity over Rd7BB (SEQ ID NO: 44))
B12 | − (<0.5 relative activity to Rd7BB (SEQ ID NO: 44))

Assay: HTP-analysis of supernatants pretreated with acid (MUGal hydrolysis)
Format: biochemical
Settings: activity of the variant/activity of Rd7BB (SEQ ID NO: 44); challenge at pH 3.5
Summary of the method: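 MUGal hydrolysis was tracked by fluorescence (Ex 355 nm, Em 448 nm) after a 30-180 min reaction at 37° C. in pH 4.8 McIlvaine/citrate buffer, stopped with 1 M sodium carbonate. Beforehand, yeast (INVSc1) culture supernatants carrying GLA variants were held 1-3 h at 37° C. in acidic McIlvaine buffer, pH 3.3-4.3.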

Molecule | Relative Activity of GLA Variants After Challenge at pH 3.5
B1 | + (>0.5 to 1.5 relative activity over Rd7BB (SEQ ID NO: 44))
B2 | + (>0.5 to 1.5 relative activity over Rd7BB (SEQ ID NO: 44))
B3 | + (>0.5 to 1.5 relative activity over Rd7BB (SEQ ID NO: 44))
B4 | + (>0.5 to 1.5 relative activity over Rd7BB (SEQ ID NO: 44))
B5 | + (>0.5 to 1.5 relative activity over Rd7BB (SEQ ID NO: 44))
B6 | + (>0.5 to 1.5 relative activity over Rd7BB (SEQ ID NO: 44))
B7 | + (>0.5 to 1.5 relative activity over Rd7BB (SEQ ID NO: 44))
B8 | + (>0.5 to 1.5 relative activity over Rd7BB (SEQ ID NO: 44))
B9 | − (<0.5 relative activity to Rd7BB (SEQ ID NO: 44))
B10 | + (>0.5 to 1.5 relative activity over Rd7BB (SEQ ID NO: 44))
B11 | − (<0.5 relative activity to Rd7BB (SEQ ID NO: 44))
B12 | − (<0.5 relative activity to Rd7BB (SEQ ID NO: 44))

Assay: HTP-analysis of supernatants pretreated with base (MUGal hydrolysis)
Format: biochemical
Settings: activity of the variant/activity of Rd7BB (SEQ ID NO: 44); challenge at pH 7.5
Summary of the method: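 GLA variants were secreted by transformed INVSc1 yeast grown 66-84 h at 30° C. Supernatants were exposed to neutral-to-basic buffers (pH 7.0-9.7) at 37° C for 1-18 h, then assayed with MUGal in acidic citrate/McIlvaine buffer, with fluorescence read after quenching.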

Molecule | Relative Activity of GLA Variants After Challenge at pH 7.5
B1 | + (>0.5 to 1.5 relative activity over Rd7BB (SEQ ID NO: 44))
B2 | + (>0.5 to 1.5 relative activity over Rd7BB (SEQ ID NO: 44))
B3 | + (>0.5 to 1.5 relative activity over Rd7BB (SEQ ID NO: 44))
B4 | + (>0.5 to 1.5 relative activity over Rd7BB (SEQ ID NO: 44))
B5 | − (<0.5 relative activity to Rd7BB (SEQ ID NO: 44))
B6 | + (>0.5 to 1.5 relative activity over Rd7BB (SEQ ID NO: 44))
B7 | + (>0.5 to 1.5 relative activity over Rd7BB (SEQ ID NO: 44))
B8 | + (>0.5 to 1.5 relative activity over Rd7BB (SEQ ID NO: 44))
B9 | − (<0.5 relative activity to Rd7BB (SEQ ID NO: 44))
B10 | + (>0.5 to 1.5 relative activity over Rd7BB (SEQ ID NO: 44))
B11 | − (<0.5 relative activity to Rd7BB (SEQ ID NO: 44))
B12 | − (<0.5 relative activity to Rd7BB (SEQ ID NO: 44))

— patent publication US11278600B2, “Human alpha-galactosidase variants” (Codexis, Inc., priority 2014, dated 2022)
